# Reference: patent US20180208661A1 (CSL, published 2018)
# T1: human IL-3Rα extracellular domain N232A (human, UniProt P26951 19-305)
# T1 sequence: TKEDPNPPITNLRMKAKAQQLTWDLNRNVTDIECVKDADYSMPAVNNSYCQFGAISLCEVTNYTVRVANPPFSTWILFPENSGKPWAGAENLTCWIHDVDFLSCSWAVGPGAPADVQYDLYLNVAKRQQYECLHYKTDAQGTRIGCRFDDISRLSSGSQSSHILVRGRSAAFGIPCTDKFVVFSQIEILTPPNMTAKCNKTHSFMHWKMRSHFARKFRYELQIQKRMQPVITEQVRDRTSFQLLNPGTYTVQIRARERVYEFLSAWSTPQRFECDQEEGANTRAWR
# T2: human IL-3Rα extracellular domain N232T (human, UniProt P26951 19-305)
# T2 sequence: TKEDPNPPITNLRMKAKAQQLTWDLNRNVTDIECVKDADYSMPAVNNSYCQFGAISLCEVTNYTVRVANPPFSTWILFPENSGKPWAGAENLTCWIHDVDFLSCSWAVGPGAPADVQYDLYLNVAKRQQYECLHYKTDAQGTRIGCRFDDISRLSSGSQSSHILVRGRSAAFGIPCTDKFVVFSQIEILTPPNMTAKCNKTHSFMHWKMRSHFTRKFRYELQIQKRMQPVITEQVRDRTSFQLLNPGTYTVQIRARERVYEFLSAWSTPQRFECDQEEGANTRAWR
# T3: human IL-3Rα extracellular domain V277A (human, UniProt P26951 19-305)
# T3 sequence: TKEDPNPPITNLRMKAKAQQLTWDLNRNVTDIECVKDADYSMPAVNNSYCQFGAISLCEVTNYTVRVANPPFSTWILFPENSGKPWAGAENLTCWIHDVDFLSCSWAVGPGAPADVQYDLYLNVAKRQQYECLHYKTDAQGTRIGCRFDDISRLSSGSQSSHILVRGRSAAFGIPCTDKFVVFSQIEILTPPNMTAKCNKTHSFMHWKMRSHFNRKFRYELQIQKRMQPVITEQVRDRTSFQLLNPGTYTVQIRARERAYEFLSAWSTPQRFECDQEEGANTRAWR
# T4: human IL-3Rα extracellular domain V277I (human, UniProt P26951 19-305)
# T4 sequence: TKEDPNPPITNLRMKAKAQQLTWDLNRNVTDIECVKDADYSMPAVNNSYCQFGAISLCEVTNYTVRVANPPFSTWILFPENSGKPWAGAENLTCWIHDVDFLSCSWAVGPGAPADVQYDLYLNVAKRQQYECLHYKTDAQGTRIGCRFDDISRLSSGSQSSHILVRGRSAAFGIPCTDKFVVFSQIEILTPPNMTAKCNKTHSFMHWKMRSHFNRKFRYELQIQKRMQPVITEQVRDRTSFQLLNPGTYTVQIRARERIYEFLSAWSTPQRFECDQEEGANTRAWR
# T5: human IL-3Rα extracellular domain Y278F (human, UniProt P26951 19-305)
# T5 sequence: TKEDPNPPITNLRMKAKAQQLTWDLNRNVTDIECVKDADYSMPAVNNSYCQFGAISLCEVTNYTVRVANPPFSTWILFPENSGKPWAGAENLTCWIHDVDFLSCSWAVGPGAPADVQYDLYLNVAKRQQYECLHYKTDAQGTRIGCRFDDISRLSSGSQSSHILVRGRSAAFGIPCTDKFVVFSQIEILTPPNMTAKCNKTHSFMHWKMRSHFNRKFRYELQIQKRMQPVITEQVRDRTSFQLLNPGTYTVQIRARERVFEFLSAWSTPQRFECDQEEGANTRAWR
# T6: wild type human IL-3Rα extracellular domain (human, UniProt P26951 19-305)
# T6 construct: also called huIL-3Rα WT; WT
# T6 sequence: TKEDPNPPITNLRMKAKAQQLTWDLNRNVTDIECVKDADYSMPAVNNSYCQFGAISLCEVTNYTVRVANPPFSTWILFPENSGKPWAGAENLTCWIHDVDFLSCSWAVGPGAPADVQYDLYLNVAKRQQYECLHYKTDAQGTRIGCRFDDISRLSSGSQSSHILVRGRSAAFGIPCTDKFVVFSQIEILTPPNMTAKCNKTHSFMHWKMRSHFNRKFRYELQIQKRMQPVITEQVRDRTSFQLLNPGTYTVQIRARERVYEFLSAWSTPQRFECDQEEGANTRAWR
# T7: human IL-3Rα extracellular domain E51A (human, UniProt P26951 19-305)
# T7 sequence: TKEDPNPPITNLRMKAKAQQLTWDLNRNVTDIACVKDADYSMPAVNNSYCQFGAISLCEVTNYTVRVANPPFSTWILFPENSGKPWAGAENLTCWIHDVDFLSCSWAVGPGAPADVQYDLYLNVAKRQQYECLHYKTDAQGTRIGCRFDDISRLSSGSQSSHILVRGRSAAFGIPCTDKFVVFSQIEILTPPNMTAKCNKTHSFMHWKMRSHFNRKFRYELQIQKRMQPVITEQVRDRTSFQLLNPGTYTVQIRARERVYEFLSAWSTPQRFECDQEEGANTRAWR
# T8: human IL-3Rα extracellular domain E51Q (human, UniProt P26951 19-305)
# T8 sequence: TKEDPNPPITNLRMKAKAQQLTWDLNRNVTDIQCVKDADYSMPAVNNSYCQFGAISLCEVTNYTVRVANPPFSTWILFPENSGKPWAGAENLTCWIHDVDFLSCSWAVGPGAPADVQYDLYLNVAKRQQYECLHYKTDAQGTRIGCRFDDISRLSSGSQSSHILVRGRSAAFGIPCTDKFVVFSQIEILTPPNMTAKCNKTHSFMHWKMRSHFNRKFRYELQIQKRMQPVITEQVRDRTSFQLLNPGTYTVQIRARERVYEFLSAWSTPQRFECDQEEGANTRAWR
# T9: human IL-3Rα extracellular domain V53A (human, UniProt P26951 19-305)
# T9 sequence: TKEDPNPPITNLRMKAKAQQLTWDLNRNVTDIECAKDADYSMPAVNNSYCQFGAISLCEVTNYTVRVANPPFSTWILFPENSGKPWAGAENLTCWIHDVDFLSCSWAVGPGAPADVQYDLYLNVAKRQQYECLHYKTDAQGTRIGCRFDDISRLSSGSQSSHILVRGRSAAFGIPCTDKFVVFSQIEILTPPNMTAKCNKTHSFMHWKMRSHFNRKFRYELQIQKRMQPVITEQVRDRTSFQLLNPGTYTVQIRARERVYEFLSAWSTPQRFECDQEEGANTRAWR
# T10: human IL-3Rα extracellular domain S59A (human, UniProt P26951 19-305)
# T10 sequence: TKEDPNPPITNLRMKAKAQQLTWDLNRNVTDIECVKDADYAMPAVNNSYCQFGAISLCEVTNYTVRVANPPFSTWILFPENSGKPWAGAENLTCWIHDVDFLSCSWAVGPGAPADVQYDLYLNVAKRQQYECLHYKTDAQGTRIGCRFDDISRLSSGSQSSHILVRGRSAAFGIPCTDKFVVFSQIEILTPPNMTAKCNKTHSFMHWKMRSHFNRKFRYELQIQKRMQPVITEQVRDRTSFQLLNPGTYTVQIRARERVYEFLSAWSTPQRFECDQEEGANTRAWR
# T11: human IL-3Rα extracellular domain P61A (human, UniProt P26951 19-305)
# T11 sequence: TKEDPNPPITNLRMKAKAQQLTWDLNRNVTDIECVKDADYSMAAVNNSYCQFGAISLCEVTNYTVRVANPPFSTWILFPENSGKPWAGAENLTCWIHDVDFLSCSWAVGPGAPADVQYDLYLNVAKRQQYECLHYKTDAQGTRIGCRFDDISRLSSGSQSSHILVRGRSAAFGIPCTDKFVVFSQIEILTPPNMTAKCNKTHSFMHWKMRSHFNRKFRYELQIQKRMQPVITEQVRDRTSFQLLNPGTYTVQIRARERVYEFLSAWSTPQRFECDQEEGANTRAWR
# What was measured:
# Experiment in all cases: affinity for IL-3Rα extracellular domain protein; method not stated
# [1] = biological target: T1, human IL-3Rα extracellular domain N232A
# [2] = biological target: T2, human IL-3Rα extracellular domain N232T
# [3] = biological target: T3, human IL-3Rα extracellular domain V277A
# [4] = biological target: T4, human IL-3Rα extracellular domain V277I
# [5] = biological target: T5, human IL-3Rα extracellular domain Y278F
# [6] = biological target: T6, wild type human IL-3Rα extracellular …
# [7] = biological target: T7, human IL-3Rα extracellular domain E51A
# [8] = biological target: T8, human IL-3Rα extracellular domain E51Q
# [9] = biological target: T9, human IL-3Rα extracellular domain V53A
# [10] = biological target: T10, human IL-3Rα extracellular domain S59A
# [11] = biological target: T11, human IL-3Rα extracellular domain P61A
binder,measurement,setting,value
human IL-3 (hIL-3) (ligand) APMTQTTPLKTSWVNCSNMIDEIITHLKQPPLPLLDFNNLNGEDQDILMENNLRRPNLEAFNRAVKSLQNASAIESILKNLLPCLPLATAAPTRHPIHIKDGDWNEFRRKLTFYLKTLENAQAQQTTLSLAIF,Kd,[1],2040 nM
same,Kd,[2],358 nM
same,Kd,[3],219 nM
same,Kd,[4],33 nM
same,Kd,[5],1860 nM
same,Kd,[6],125 nM
same,Kd,[7],207 nM
same,Kd,[8],213 nM
same,Kd,[9],588 nM
same,Kd,[10],262 nM
same,Kd,[11],176 nM
